Positions count from the first letter of the chain named.
B1: 抗CD123单克隆抗体12H7 (antibody, IgG1, V domains shown)
VH: QVKLQESGPGLVKPSQSLSLTCTVTGYSITSDFAWNWVRQFPGDKLEWMGYISYSGGTNYHPSLKDRISITRDTSKNQVFLQLNSVTTEDTATYYCARGGMITPYFAYWGQGTLVTVSA
VL: DVVVTQTPLSLPVSFGDQVSISCRSSQSLANSYGNTFLSWYLHKPGQSPQLLIYGISNRFSGVPDRFSGSGSGTDFTLKISTIKPEDLGIYYCLQGTHQPWTFGGGTKLEIKR
notes: Purified from ascites; also called CGMCC 18847
B2: 抗CD123单克隆抗体6E11 (antibody, IgG1, V domains shown)
VH: QVQLQESGPGLVKPSQSLSLTCTVTGYSITNDFAWNWIRQFPGNKLEWMGYISFSGSTSYNPSLKGRISITRDTSKNQFFLQLNSVTTEDTATYSCARGGMITPYFSYWGQGTLVTVSA
VL: B1 VL with Q18S, K44R, T82S, I90V
notes: Purified from ascites; also called CGMCC 18848
B3: 抗CD123单克隆抗体8D7 (antibody, IgG1, V domains shown)
VH: EVQLQESGPGLVKPSQSLSLTCTVTGYSITNDYTWNWIRQFPGNKLEWMGYISFSGITSHNPSLNSRISITRDTSKNQFFLQLNSVTTEDTATYYCTRGVDFWGQGTSVTVSA
VL: DIVLTQSPATLSVTPGDSVSLSCWASQSISNSLHWYQQKSHESPRLLIKFASQSISGIPSRFSGSGSGTDFTLSIDSVETEDFGMYFCQQGHTWPHTFGAGTKLELKR
notes: Purified from ascites; also called CGMCC 18849

These binders were tested against T1, 人CD123蛋白 (白细胞介素3受体α链) (human, UniProt P26951 19-378) (assay: flow cytometry, PE-labelled antibody titrated on CD123-transfected 3T3 cells, fitted in GraphPad Prism 5).
T1 construct: whole, on cells; also called IL-3Rα; 3T3/CD123+
T1 sequence (P26951 19-378): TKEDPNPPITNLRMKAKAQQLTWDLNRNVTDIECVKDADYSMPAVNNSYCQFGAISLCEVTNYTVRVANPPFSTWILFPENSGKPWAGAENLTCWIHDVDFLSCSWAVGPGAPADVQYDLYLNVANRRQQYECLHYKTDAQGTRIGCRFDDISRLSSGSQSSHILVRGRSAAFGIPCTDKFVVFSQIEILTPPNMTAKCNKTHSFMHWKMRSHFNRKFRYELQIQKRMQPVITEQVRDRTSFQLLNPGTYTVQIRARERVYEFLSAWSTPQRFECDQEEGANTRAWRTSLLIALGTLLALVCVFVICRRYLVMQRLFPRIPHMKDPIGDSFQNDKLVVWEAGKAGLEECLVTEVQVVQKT

Kd	Binder
2.09 nM	B1
2.1 nM	B2
2.01 nM	B3

Source: patent publication CN112851807A (BLOOD DISEASES HOSPITAL CHINESE ACADEMY OF MEDICAL SCIENCES …, dated 2021)
